Laboratory results reported in publication PMC2173521.

What was measured:
[1] = target: N-1 peptide (derived from HRA of the SV5 F protein) (SV5 (W3A strain))
[2] = target: N-1 peptide (derived from HRA of the SV5 F protein) (SV5 (W3A strain)); test: AUC

Row | Substance | IC50 inhibition of cell–cell fusion by SV5 F (T7 luciferase reporter gene assay) [1] | Mobs/Mcalc (mol wt found over that calculated for one N-1/C-1 heterodimer) [2]
1 | C-1 peptide (derived from HRB of the SV5 F protein), wild type | 38 nM | –
2 | C-1 peptide I449A | 115 nM | 2.8
3 | C-1 peptide I449F | 151 nM | 2.9
4 | C-1 peptide I449G | 271 nM | 2.9
5 | C-1 peptide I449L | 54 nM | 2.8
6 | C-1 peptide I449V | 58 nM | 3
7 | C-1 peptide I449W | 146 nM | –
8 | C-1 peptide L447A | 92 nM | 2.8
9 | C-1 peptide L447F | 100 nM | 2.9
10 | C-1 peptide L447G | 150 nM | 2.7
11 | C-1 peptide L447I | 50 nM | 2.8
12 | C-1 peptide L447V | 83 nM | 2.8
13 | C-1 peptide L447W | 106 nM | 3.1
